Assay results published in article PMC7588467.

Molecular target: OP protein cage
Test: cryo-EM structure; OP cages empty, with SDS (800 equiv.) or with SDS:CS, in TSEC buffer; octahedral symmetry imposed; rigid-body fit of the OP crystal structure (PDB 6FDB)

## OP protein cage
  stoichiometry N (monomers per cage): 24
